# Experimental data from US20240409645A1.
# T1: mouse IL-2Rγ (mouse) (UniProt P34902)
# T1 sequence (looked up): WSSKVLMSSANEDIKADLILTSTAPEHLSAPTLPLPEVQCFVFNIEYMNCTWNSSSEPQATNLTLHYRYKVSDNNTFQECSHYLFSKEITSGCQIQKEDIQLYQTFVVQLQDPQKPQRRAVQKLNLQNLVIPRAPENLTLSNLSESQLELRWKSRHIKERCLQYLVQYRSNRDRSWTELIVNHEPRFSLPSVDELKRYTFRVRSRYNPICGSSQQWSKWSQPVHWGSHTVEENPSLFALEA
# T2: mouse IL-2Rβ (mouse) (UniProt P16297)
# T2 sequence (looked up): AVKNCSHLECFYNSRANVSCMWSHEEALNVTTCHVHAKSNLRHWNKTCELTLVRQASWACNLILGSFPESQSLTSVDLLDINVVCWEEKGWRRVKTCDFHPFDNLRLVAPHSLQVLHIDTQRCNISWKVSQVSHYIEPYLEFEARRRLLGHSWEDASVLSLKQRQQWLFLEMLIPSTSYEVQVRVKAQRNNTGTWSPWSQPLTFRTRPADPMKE
# Target: T1, mouse IL-2Rγ (mouse)
# Assay: PE binding ELISA, periplasmic extract on coated protein
row,OD (PE binding ELISA),Binder
1,0.048 OD450 nm,27-MP04G01 (VHH) VHH: QVQLVESGGGLVQAGGSLTLSCAAPGRTFGTDVVGWFRQAPGKEREFVASISRSGDGIYYDDSVKGRFTISRNNAWNTVNLQMNSLKVEDTAVYYCAAGDGWSTYDYWGQGTQVTVSS
2,0.049 OD450 nm,FJ1427_P035MP04C01 (VHH) VHH: QVQLVESGGGLVQAGGSLTLSCAASGRTFSTDVVGWFRQAPGKEREFVASISRSGDGIYYDDSVKGRFTISRNNAWNTVNLQMNNLKVEDTAVYYCAAGDGWSTYDYWGQGTQVTVSS
3,0.048 OD450 nm,FJ1427_P035MP04B03 (VHH) VHH: QVQLQESGGGLVQAGESLRLSCAASGPTASRVAVAWFRQVPGKEREFVAVVNRPGTMTKYADSVKGRFTISRDSAKNTVYLQMNSLKPEDTAVYYCAADSVPYGRPYYFQTSAGNYDYWGQGTQVTVSS
4,0.05 OD450 nm,FJ1427_P035MP04A04 (VHH) VHH: QVQLVESGGGLVQAGESLRLSCAASGPTASRVAVAWFRQVPGKEREFVAVVNRPGTMTKYADSVKGRFTISRDSAKNTVYLQMNSLKPEDTAVYYCAADSVPYGRPYYFQTSAGNYDYWGQGTQVTVSS
5,0.05 OD450 nm,29-MP04H02 (VHH) VHH: QVQLVESGGGLVQAGGSLRLACVASGLTFDNYYMGWFRQAPGKEREFVAGIIWNGDHTAYADSIKGRFTISRDNAKNTAYLRMNSLKPEDTAVYYCAATFWIERATTPDIGQYAYWGQGTQVTVSS
6,0.05 OD450 nm,32-MP04A08 (VHH) VHH: QVQLVESGGGLVQAGGSLRLSCAASGRTFGSTAVGWFRQVPGKEREFVSAINRSGSATTYADSVKGRFTISRDNAKNTVYLQMNSLTPEDTGVYYCAADSLPYGRPYYFQRSAGEYDYWGQGTQVTVSS
7,0.045 OD450 nm,35-MP07G01 (VHH) VHH: QVQLQESGGGLVQGGGSLRLSCAASGGIFSSYAMGWFRQAPGKEREFVAAISRSGRSTNYADSVKGRFTISRDNAKSTVYLQMNSLKPEETAVYYCAAGRYYNSAYDPSPGDFGSWGHGTQVTVSS
8,0.048 OD450 nm,FJ1427_P035MP04B02 (VHH) VHH: QVQLVESGGGWVQVGESLRLSCAPSGRTFVSGIMGWFRQTPGKEREFVARIILNNNSTRYTDSVKGRFTISRDSAKNTMYLQMNTLRPEDTAVYYCAARDRYGSGNSLSPSAYDYWGQGTQVTVSS
9,0.049 OD450 nm,FJ1427_P035MP04E02 (VHH) VHH: QVQLVESGGGWVQVGESLRLSCAPSGRTFVSGIMGWFRQTPGKEREFVARIILNNNSTRYTDSVKGRFTISRDSAKNTMYLQMNTLRPEDTAVYYCAARDRYGSGNSLSPSAYDYWGQGTQVTVSS
10,0.052 OD450 nm,FJ1427_P035MP04A03 (VHH) VHH: EVQLVESGGGWVQVGESLRLSCAPSGRTFVSGIMGWFRQTPGKEREFVARIILNNNSTRYTDSVKGRFTISRDSAKNTMYLQMNTLRPEDTAVYYCAARDRYGSGNSLSPSAYDYWGQGTQVTVSS
11,0.049 OD450 nm,FJ1427_P035MP04F02 (VHH) VHH: QLQLVESGGGLVQAGGSLTLSCAASGRTFSRDVVGWFRQAPGKEREFVASISRSGDGTFYTDSVKGRFTISSRDNAKNTVLLQMNSLKVEDTAVYYCAAGDGWSTYDYWGQGTQVTVSS
12,0.047 OD450 nm,33-MP04C09 (VHH) VHH: QLQLVESGGGLVQAGGSLRLSCAASGPTFSRVAVGWFRQAPGKEREFVAAVNRPATMTKYADSVKGRFTVSRDNAKNTVDLQMNSMKPEDTAVYYCAADSVPYGRPYYWQTSAGDYDYWGQGTQVTVSS
13,0.048 OD450 nm,30-MP04C03 (VHH) VHH: EVQLVESGGGWVQDGGSLRLSCALSGRTFVRGIMGWFRQAPGKEREFVARIIWHINSTRYADSVKGRFTISRDSAKNTMYLQMDSLRPEDTAVYYCAARDRYGSGNSLSPSAYDYWGQGTQVTVSS
14,0.049 OD450 nm,FJ1427_P035MP04G03 (VHH) VHH: EVQLVESGGGWVQVGESLRLSCAPSGRTFVSGIMGWFRQAPGKEREFVARIILNNNSTRYTDSVKGRFTISRDSAKNTMYLQMDSLRPEDTAVYYCAARDRYGSGNSLSPSAYDYWGQGTQVTVSS
15,0.048 OD450 nm,FJ1427_P035MP04E04 (VHH) VHH: EVQLVESGGGWVQVGESLRLSCVPSGRTFVSGIMGWFRQAPGKEREFVARIILNSNSTRYTDSVKGRFTISRDSAKNTMYLQMNSLRPEDTAVYYCAARDRYGSGNSLSPSAYDYWGQGTQVTVSS

# Target: T2, mouse IL-2Rβ (mouse)
# Assay: P.E. binding ELISA on coated protein
row,P.E. binding ELISA OD,Binder
1,0.052 OD450 nm,FJ1427_P035MP03H09 (VHH) VHH: QVQLVESGGGLVQAGGSLRLSCAASGSIFSINAMGWFRQAPGKEREFVAAISRSGGSTAYVDSVKGRFTISRDNSKNMVHLQMNSLKSEDEAVYYCAATAAVGWTSRWITTDFDSWGQGTQVTVSS
2,0.047 OD450 nm,FJ1427_P035MP03D10 (VHH) VHH: QVQLQESGGGLVQAGDSLRLSCVVSGRDFSGYTMGWFRQPPGKEREFVALITWSTGRVHYTDSVEGRFTISRDSAKNTVYLQMNSLKPEDTAVYTCAAGRVGYTTNLHSYDYSGQGTQVIVSA
3,0.052 OD450 nm,FJ1427 P035MP03B11 (VHH) VHH: EVQLVESGGGLVQAGGSLRLACALSGDVFVRYTMAWFRQAPGKEREFVASVTDSGRTTDYVASVQGRFTVSRDNNKNTVYLQMNSLKPEDTAVYYCAANTDYFQIRSLDRNTWGQGTQVTVSS
4,0.049 OD450 nm,FJ1427 P035MP06G01 (VHH) VHH: EVQLVESGGGLVQAGDSLRLSCVVSGRGFSTYTMGWFRQAPGKEREFVAAITWSTGRTSYADSVKGRFTISRENAENTVYLQMNSLELEDTAVYYCATDQVLWTTRPRDMRYWGQGTQVTVSF
5,0.048 OD450 nm,FJ1427_P035MP03E10 (VHH) VHH: EVQLVESGGGLVQPGGSLRLSCAASGFTFRNYAMSWVRQAPGKGLEWVGGITGEGLGTIYQDSVEGRFTISRNNAKNTLYLQMNSLRSEDTAVYYCTKMASGTLFRDKPYEYTSRGQGTQVTVSS
6,0.047 OD450 nm,FJ1427 P035MP03C12 (VHH) VHH: QVQLVESGGGLVQAGGSLRLSCAASGRAFSTYSMGWFRQTPGKEREFVAIISESGGIIDYGDSVKGRFTLSRDNAKNTVSLQMSSLQPEDTAVYYCAAARDWFARTAYQYDYWGQGTQVTVSA
7,0.048 OD450 nm,FJ1427 P035MP03F11 (VHH) VHH: QVQLVESGGGLAQAGGSLRLSCAASGRTFSQDAKAWFRQAPGKEREFVAAITWSGRDTDYADSVKGRFTIARDNAKNTVYLQMDSLKPEDTAVYYCAVYPQGTIGPYFRSSNHYDYWGQGTQVTVSS
8,0.047 OD450 nm,FJ1427 P035MP03C10 (VHH) VHH: QVQLVESGGGLVQAGGSLRLSCAASGRTFSTTEMGWFRQAPGKEREFVAAITWTGRGTMYAESVEGRFTISRENAKNMVYLQMNSLKPEDTAIYYCAAARRGRAAVRSEGGYDFWGQGTQVTVSS
9,0.049 OD450 nm,FJ1427 P035MP03H10 (VHH) VHH: QVQLVESGGGLVQAGGSLRLSCAASGRTFSTTEMGWFRQAPGKEREFVAAITWTGRGTMYAESVEGRFTISRENAKNMVYLQMNSLKPEDTAIYYCAAARRGRAAVRSEGGYDFWGQGTQVTVSS
10,0.049 OD450 nm,FJ1427 P035MP03D11 (VHH) VHH: QVQLVESGGGLVQAGGSLRLSCAASGRTFSTTDVGWFRQAPGKEREFVAAITWSSHSTLYADSVEGRFTVTRENAKNTVYLQMNSLKPEDTAVYYCAAVRRGWAVVRTEGAYDFWGQGTQVTVSA
11,0.05 OD450 nm,FJ1427 P035MP03B10 (VHH) VHH: QVQLVESGGGLVQAGGSLRLSCVVSGDVFVRYTMAWFRQAPGKEREFVAVVTDSGRTTEYVDSVKGRFTVSRDNAKNTVYLQMNNLKPEDTAVYYCAANTDYFQIRSVDNNAWGQGTQVTVSS
12,0.049 OD450 nm,FJ1427 P035MP03B12 (VHH) VHH: EVQLVESGGGLVQAGGSLRLSCAASGDVFVRYTMAWFRQAPGKEREFVAAVTDSGRTADYVDSVKGRFTVSRDNAKNTVYLQMNNLKPEDTAVYYCAANTDYFQIRSLDRNTWGQGTQVTVSS
13,0.048 OD450 nm,FJ1427_P035MP06B02 (VHH) VHH: QVQLVESGGGLVQAGGSLRLSCVVSGDVFVRYTMAWFRQAPGKEREFVAAVTDSGRTTEYVDSVKGRFTVSRDNAKNTVYLQMNNLKPEDTAVYYCAANTDYFQIRSVDNNAWGQGTQVTVSS
14,0.05 OD450 nm,FJ1427_P035MP03E11 (VHH) VHH: EVQLVESGGGLVQAGGSLRLSCVVSGDVFVRYTMAWFRQAPGKEREFVAAVTDSGRTTEYVDSVKGRFTVSRDNAKNTVYLQMNNLEPEDTAVYYCAANTDYFQIRSVDNNAWGQGTQVTVSS
15,0.048 OD450 nm,FJ1427_P035MP03G10 (VHH) VHH: QVQLVESGGGLVQAGGSLRLSCAASGRSYAMGWFRQAPGKEREFVAAISWSASSTYYSESVKGRFTISRENAKNTVYLQMNSLKPEDTAVYYCAVRASPFVAGSYDPSDDPADYGSWGQGTQVIVSS
